According to PMC2836939:
Read-outs that look alike come from different tables or passages of the source.

Columns and labels:
Test in all cases: EMSA
Dmp1 (Dmtf1) [1] = biological target: T1, Dmp1 (Dmtf1) (UniProt Q8CE22 1-761)
T1 sequence: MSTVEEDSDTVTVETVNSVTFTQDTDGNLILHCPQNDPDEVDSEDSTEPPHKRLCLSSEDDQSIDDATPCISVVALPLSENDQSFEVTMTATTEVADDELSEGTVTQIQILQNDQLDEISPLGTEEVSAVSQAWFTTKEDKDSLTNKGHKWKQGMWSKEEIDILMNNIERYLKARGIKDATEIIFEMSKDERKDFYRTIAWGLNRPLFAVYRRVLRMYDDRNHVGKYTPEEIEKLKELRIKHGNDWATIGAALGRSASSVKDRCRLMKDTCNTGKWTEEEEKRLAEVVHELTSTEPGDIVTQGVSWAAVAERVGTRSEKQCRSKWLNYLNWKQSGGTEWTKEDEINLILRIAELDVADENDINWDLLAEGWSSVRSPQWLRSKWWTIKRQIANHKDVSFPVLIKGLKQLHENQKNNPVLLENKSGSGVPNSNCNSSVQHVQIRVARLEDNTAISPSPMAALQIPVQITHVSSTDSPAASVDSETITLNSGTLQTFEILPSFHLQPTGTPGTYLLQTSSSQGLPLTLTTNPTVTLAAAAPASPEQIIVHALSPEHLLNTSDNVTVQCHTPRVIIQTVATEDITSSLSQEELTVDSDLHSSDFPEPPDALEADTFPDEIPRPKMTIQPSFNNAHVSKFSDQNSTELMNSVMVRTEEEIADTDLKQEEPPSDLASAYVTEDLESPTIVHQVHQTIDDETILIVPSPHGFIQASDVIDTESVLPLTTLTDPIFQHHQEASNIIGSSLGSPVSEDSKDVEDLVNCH

Dmp1 (Dmtf1) [2] = biological target: T1, Dmp1 (Dmtf1); remark: listed apart in the source
Dmp1 (Dmtf1) [3] = biological target: T1, Dmp1 (Dmtf1); remark: listed apart in the source
Dmp1 (Dmtf1) [4] = biological target: T1, Dmp1 (Dmtf1); remark: listed apart in the source
Dmp1 (Dmtf1) [5] = biological target: T1, Dmp1 (Dmtf1); remark: listed apart in the source

B1: Areg#1 (dsDNA)
DNA 1: TTTACCCCAGAACGGGATGGGGAGCAT
DNA 2: ATGCTCCCCATCCCGTTCTGGGGTAAA
**Q.** Does B1 bind (Dmp1 (Dmtf1) [1])?
**A.** binds

B2: Tsp-1#1 (dsDNA)
DNA 1: TTTCAGAGCCTGCGTATGTTATAACG
DNA 2: CGTTATAACATACGCAGGCTCTGAAA
**Q.** Does B2 bind (Dmp1 (Dmtf1) [2])?
**A.** binds

B3: JunB#2 (control) (dsDNA)
DNA 1: TTTGAGCCCTGGGAGCCATCCGAGCGGCTTTCAACAGACC
DNA 2: GGTCTGTTGAAAGCCGCTCGGATGGCTCCCAGGGCTCAAA
**Q.** Does B3 bind (Dmp1 (Dmtf1) [3])?
**A.** no binding

B4: JunB#1 (dsDNA)
DNA 1: TTTTTTTCTTCCAAGCTGGGCGGATGGAGGGAGAAGATTG
DNA 2: CAATCTTCTCCCTCCATCCGCCCAGCTTGGAAGAAAAAAA
**Q.** Does B4 bind (Dmp1 (Dmtf1) [3])?
**A.** binds

B5: Areg#2 (dsDNA)
DNA 1: TTTGCTCAGGTGAGCATCCGCCACCTCTCAGG
DNA 2: CCTGAGAGGTGGCGGATGCTCACCTGAGCAAA
**Q.** Does B5 bind (Dmp1 (Dmtf1) [4])?
**A.** binds

B6: Egr1#1 (dsDNA)
DNA 1: TTTAAAACGAAGGTGGAGGCGGATGGAGAGAGAGAGAGAGAG
DNA 2: CTCTCTCTCTCTCTCTCCATCCGCCTCCACCTTCGTTTTAAA
**Q.** Does B6 bind (Dmp1 (Dmtf1) [5])?
**A.** binds
